Source: US20230322953A1 (HARBOUR BIOMED SHANGHAI, published 2023)

T1: human BCMA (human, UniProt Q02223 1-184)
T1 construct: whole, on cells; also called hBCMA; TNFRSF17
T1 sequence (looked up): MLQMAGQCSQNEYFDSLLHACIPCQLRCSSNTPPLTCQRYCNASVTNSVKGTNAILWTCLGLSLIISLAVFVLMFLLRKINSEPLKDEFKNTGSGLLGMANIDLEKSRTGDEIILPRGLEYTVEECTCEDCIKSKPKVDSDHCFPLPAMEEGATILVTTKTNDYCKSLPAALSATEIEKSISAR


Molecular target: T1, human BCMA
Test: FACS on NCI-H929 cells

| Binder | EC50 | Maximum MFI |
| --- | --- | --- |
| PR000274 (antibody, human IgG1, kappa, V domains shown, also called Positive control 1; CA8-J6M0) VH: QVQLVQSGAEVKKPGSSVKVSCKASGGTFSNYWMHWVRQAPGQGLEWMGATYRGHSDTYYNQKFKGRVTITADKSTSTAYMELSSLRSEDTAVYYCARGAIYDGYDVLDNWGQGTLVTVSS VL: DIQMTQSPSSLSASVGDRVTITCSASQDISNYLNWYQQKPGKAPKLLIYYTSNLHSGVPSRFSGSGSGTDFTLTISSLQPEDFATYYCQQYRKLPWTFGQGTKLEIKR | 28.9 nM | – |
| PR002299 (bispecific antibody, human IgG1, lambda, L234A L235A, BCMAxCD3, Fab-Fc-VH(2) (structure 14); CD3 Fab of PR001848, two BCMA VH of PR000940, linker RT-GS_5-KL; IgG1 knob/hole, AAG) light: QAVVTQEPSLTVSPGGTVTLTCRSSTGAVTTSNYANWVQQKPGQAPRGLIGGTNKRAPWTPARFSGSLLGDKAALTLLGAQPEDEAEYFCALWYSNLWVFGGGTKLTVLGQPKAAPSVTLFPPSSEELQANKATLVCLISDFYPGAVTVAWKADSSPVKAGVETTTPSKQSNNKYAASSYLSLTPEQWKSHRSYSCQVTHEGSTVEKTVAPTECS heavy: EVQLLESGGGLVQPGGSLRLSCAASGFTFSTYAMNWVRQAPGKGLEWVSRIRSKYNNYATYYADSVKDRFTISRDDSKSTLYLQMNSLRAEDTAVYYCVRHGNFGNSYVSWFAYWGQGTLVTVSSASTKGPSVFPLAPSSKSTSGGTAALGCLVKDYFPEPVTVSWNSGALTSGVHTFPAVLQSSGLYSLSSVVTVPSSSLGTQTYICNVNHKPSNTKVDKKVEPKSCDKTHTCPPCPAPEAAGGPSVFLFPPKPKDTLMISRTPEVTCVVVDVSHEDPEVKFNWYVDGVEVHNAKTKPREEQYNSTYRVVSVLTVLHQDWLNGKEYKCKVSNKALGAPIEKTISKAKGQPREPQVYTLPPCREEMTKNQVSLWCLVKGFYPSDIAVEWESNGQPENNYKTTPPVLDSDGSFFLYSKLTVDKSRWQQGNVFSCSVMHEALHNHYTQKSLSLSPGK EVQLLESGGGLVQPGGSLRLSCAASGFTFSSYAMIWVRQAPGKGLEWVSGISESGGSTYYADSVKGRFTISRDNSKNTLYLQMNSLRAEDTAVYFCVKDLDDILTGYYKDYWGQGTLVTVSSRTGGGGSKLEVQLLESGGGLVQPGGSLRLSCAASGFTFSSYAMIWVRQAPGKGLEWVSGISESGGSTYYADSVKGRFTISRDNSKNTLYLQMNSLRAEDTAVYFCVKDLDDILTGYYKDYWGQGTLVTVSSASEPKSSDKTHTCPPCPAPEAAGGPSVFLFPPKPKDTLMISRTPEVTCVVVDVSHEDPEVKFNWYVDGVEVHNAKTKPREEQYNSTYRVVSVLTVLHQDWLNGKEYKCKVSNKALGAPIEKTISKAKGQPREPQVCTLPPSREEMTKNQVSLSCAVKGFYPSDIAVEWESNGQPENNYKTTPPVLDSDGSFFLVSKLTVDKSRWQQGNVFSCSVMHEALHNHYTQKSLSLSPGK | – | 32800 |
| PR002300 (bispecific antibody, human IgG1, lambda, L234A L235A, BCMAxCD3, Fab-Fc-VH(2) (structure 14); CD3 Fab of PR001848, two BCMA VH of PR000940, linker RT-GS_15-KL; IgG1 knob/hole, AAG) light: QAVVTQEPSLTVSPGGTVTLTCRSSTGAVTTSNYANWVQQKPGQAPRGLIGGTNKRAPWTPARFSGSLLGDKAALTLLGAQPEDEAEYFCALWYSNLWVFGGGTKLTVLGQPKAAPSVTLFPPSSEELQANKATLVCLISDFYPGAVTVAWKADSSPVKAGVETTTPSKQSNNKYAASSYLSLTPEQWKSHRSYSCQVTHEGSTVEKTVAPTECS heavy: EVQLLESGGGLVQPGGSLRLSCAASGFTFSTYAMNWVRQAPGKGLEWVSRIRSKYNNYATYYADSVKDRFTISRDDSKSTLYLQMNSLRAEDTAVYYCVRHGNFGNSYVSWFAYWGQGTLVTVSSASTKGPSVFPLAPSSKSTSGGTAALGCLVKDYFPEPVTVSWNSGALTSGVHTFPAVLQSSGLYSLSSVVTVPSSSLGTQTYICNVNHKPSNTKVDKKVEPKSCDKTHTCPPCPAPEAAGGPSVFLFPPKPKDTLMISRTPEVTCVVVDVSHEDPEVKFNWYVDGVEVHNAKTKPREEQYNSTYRVVSVLTVLHQDWLNGKEYKCKVSNKALGAPIEKTISKAKGQPREPQVYTLPPCREEMTKNQVSLWCLVKGFYPSDIAVEWESNGQPENNYKTTPPVLDSDGSFFLYSKLTVDKSRWQQGNVFSCSVMHEALHNHYTQKSLSLSPGK EVQLLESGGGLVQPGGSLRLSCAASGFTFSSYAMIWVRQAPGKGLEWVSGISESGGSTYYADSVKGRFTISRDNSKNTLYLQMNSLRAEDTAVYFCVKDLDDILTGYYKDYWGQGTLVTVSSRTGGGGSGGGGSGGGGSKLEVQLLESGGGLVQPGGSLRLSCAASGFTFSSYAMIWVRQAPGKGLEWVSGISESGGSTYYADSVKGRFTISRDNSKNTLYLQMNSLRAEDTAVYFCVKDLDDILTGYYKDYWGQGTLVTVSSASEPKSSDKTHTCPPCPAPEAAGGPSVFLFPPKPKDTLMISRTPEVTCVVVDVSHEDPEVKFNWYVDGVEVHNAKTKPREEQYNSTYRVVSVLTVLHQDWLNGKEYKCKVSNKALGAPIEKTISKAKGQPREPQVCTLPPSREEMTKNQVSLSCAVKGFYPSDIAVEWESNGQPENNYKTTPPVLDSDGSFFLVSKLTVDKSRWQQGNVFSCSVMHEALHNHYTQKSLSLSPGK | – | 44200 |

The remaining lines, values ahead:

| EC50 | Maximum MFI | Binder |
| --- | --- | --- |
| 1.8 nM | 11100 | PR003882 (bispecific antibody, human IgG1, lambda, L234A L235A, BCMAxCD3, Fab-Fc-VH (structure 11); CD3 Fab of PR003886, BCMA VH of PR004562; IgG1 knob/hole, LALA) light: QAVVTQEPSLTVSPGGTVTLTCRSSTGAVTTSNYANWVQQKPGQAPRGLIGGTNKRAPWTPARFSGSLLGDKAALTLLGAQPEDEAEYFCALWYSNLWVFGGGTKLTVLGQPKAAPSVTLFPPSSEELQANKATLVCLISDFYPGAVTVAWKADSSPVKAGVETTTPSKQSNNKYAASSYLSLTPEQWKSHRSYSCQVTHEGSTVEKTVAPTECS heavy: not shown EVQLVETGGGLIQPGGSLRLSCAASGFTVSDSYMTWVRQAPGKGLEWVSVIFSGGKTYYSDSVKGRFTISRDNAKNTLYLQMNSLRAEDTALYYCARRNYDQTLGTDVFDIWGQGTMVTVSSASEPKSSDKTHTCPPCPAPEAAGGPSVFLFPPKPKDTLMISRTPEVTCVVVDVSHEDPEVKFNWYVDGVEVHNAKTKPREEQYNSTYRVVSVLTVLHQDWLNGKEYKCKVSNKALPAPIEKTISKAKGQPREPQVCTLPPSREEMTKNQVSLSCAVKGFYPSDIAVEWESNGQPENNYKTTPPVLDSDGSFFLVSKLTVDKSRWQQGNVFSCSVMHEALHNHYTQKSLSLSPGK |
| 9 nM | 84500 | PR002332 (bispecific antibody, human IgG1, lambda, L234A L235A, BCMAxCD3, Fab-Fc-VH'-VH'' (structure 15); IgG1 knob/hole, AAG) light: QAVVTQEPSLTVSPGGTVTLTCRSSTGAVTTSNYANWVQQKPGQAPRGLIGGTNKRAPWTPARFSGSLLGDKAALTLLGAQPEDEAEYFCALWYSNLWVFGGGTKLTVLGQPKAAPSVTLFPPSSEELQANKATLVCLISDFYPGAVTVAWKADSSPVKAGVETTTPSKQSNNKYAASSYLSLTPEQWKSHRSYSCQVTHEGSTVEKTVAPTECS heavy: EVQLLESGGGLVQPGGSLRLSCAASGFTFSTYAMNWVRQAPGKGLEWVSRIRSKYNNYATYYADSVKDRFTISRDDSKSTLYLQMNSLRAEDTAVYYCVRHGNFGNSYVSWFAYWGQGTLVTVSSASTKGPSVFPLAPSSKSTSGGTAALGCLVKDYFPEPVTVSWNSGALTSGVHTFPAVLQSSGLYSLSSVVTVPSSSLGTQTYICNVNHKPSNTKVDKKVEPKSCDKTHTCPPCPAPEAAGGPSVFLFPPKPKDTLMISRTPEVTCVVVDVSHEDPEVKFNWYVDGVEVHNAKTKPREEQYNSTYRVVSVLTVLHQDWLNGKEYKCKVSNKALGAPIEKTISKAKGQPREPQVYTLPPCREEMTKNQVSLWCLVKGFYPSDIAVEWESNGQPENNYKTTPPVLDSDGSFFLYSKLTVDKSRWQQGNVFSCSVMHEALHNHYTQKSLSLSPGK EVQLVETGGGLIQPGGSLRLSCAASGFTVSDNYMTWVRQAPGKGLEWVSVIFSGGNTYYADSVKGRFTISRDNAKNTLYLQMNSLRAEDTALYYCARRNYDDTRGTDVFDIWGQGTMVTVSSRTGGGGSGGGGSGGGGSKLEVQLVETGGGLIQPGGSLRLSCAASGFTVSSNYMTWVRQAPGKGLEWVSVIFSGGSTYYADSVKGRFTISRDNSKNTLYLQMNSLRAEDTAVYYCARRIAVAGHDVFDIWGQGTMVTVSSASEPKSSDKTHTCPPCPAPEAAGGPSVFLFPPKPKDTLMISRTPEVTCVVVDVSHEDPEVKFNWYVDGVEVHNAKTKPREEQYNSTYRVVSVLTVLHQDWLNGKEYKCKVSNKALGAPIEKTISKAKGQPREPQVCTLPPSREEMTKNQVSLSCAVKGFYPSDIAVEWESNGQPENNYKTTPPVLDSDGSFFLVSKLTVDKSRWQQGNVFSCSVMHEALHNHYTQKSLSLSPGK |
